Article PMC4156530 (Journal of neurochemistry, 2014)
Where a chain is given by its changes, count along the chain named. Numbers in names are those of the source.

B1: human DJ-1 C106S, recombinant, tag-cleaved (natural protein)
chain: GSHMASKRALVILAKGAEEMETVIPVDVMRRAGIKVTVAGLAGKDPVQCSRDVVICPDASLEDAKKEGPYDVVVLPGGNLGAQNLSESAAVKEILKEQENRKGLIAAISAGPTALLAHEIGFGSKVTTHPLAKDKMMNGGHYTYSENRVEKDGLILTSRGPGTSFEFALAIVEALNGKEVAAQVKAPLVLKD
B2: human DJ-1 E18Q, recombinant, tag-cleaved (natural protein)
chain: B1 chain with E21Q, S109C
modifications: unlabelled preparation fully reduced; the 15N-labelled preparation of the NMR experiment 43% oxidised (Cys106-SO2-)
B3: human DJ-1 E18D, recombinant, tag-cleaved (natural protein)
chain: B1 chain with E21D, S109C
modifications: uniformly 15N-labelled in the NMR experiment; fully reduced

What was measured:
cross-linking = target: the molecule itself; experiment: cross-linking
AUC = target: the molecule itself; experiment: AUC

| Protein | binding result (cross-linking) | stoichiometry N (AUC) |
| --- | --- | --- |
| B1 | binds | – |
| B2 | – | 2 |
| B3 | – | 2 |
